Experimental data: patent publication US20250206828A1, “ANTI-ADENOSINE RECEPTOR (A2aR) ANTIBODIES AND THE USE THEREOF” (Adept Therapeutics Inc., priority 2022, published 2025)
Substitutions are numbered along the chain they refer to. In names and notes the source's numbering stands. Where two headings read alike, the source gives them in different places.

B1: Hu1B5-H3/Hu1B5-L1 (antibody, human IgG1, V domains shown)
VH: EVQLVQSGAEVKKPGASVKVSCKTSGFTFTRFWMNWVRQAPGQGLEWIGRIDPYDSETQYNHKFWDRATLTVDTSSSTVYMELSSLRSEDTAVYYCGRSLYGKGDYWGQGTTVTVSS
VL: DVVMTQSPLSLPVTLGQPASISCRSSQSIVHSNGNTYLEWFQQRPGQSPRRLIYKVSNRFSGVPDRFSGSGSGTDFTLKISRVEAEDVGVYYCFQGSHVPLTFGGGTKVEIK
B2: Hu3F8-H3/Hu3F8-L5 (antibody, human IgG1, V domains shown)
VH: B1 VH with T24A, F32Y, Y54S, Q59H, D66G, S76T, G97L
VL: B1 VL with L15P, Q17E, F41Y, Q42L, R44K, R50Q, R51L, F94Y
notes: Human IgG1 FES (L234F, L235E, P331S) and human Ig kappa constant domains; also called Hu3F8 VH3/VL5
B3: Hu3F8-H1/Hu3F8-L3 (antibody, human IgG1, V domains shown)
VH: QVQLVQSGAEVKKPGASVKVSCKASGFTFTRYWMNWVRQAPGQGLEWMGRIDPSDSETHYNHKFWGRVTMTRDTSTSTVYMELSSLRSEDTAVYYCLRSLYGKGDYWGQGTTVTVSS
VL: B1 VL with F41Y, R51L, F94Y
notes: Human IgG1 FES (L234F, L235E, P331S) and human Ig kappa constant domains
B4: Hu3F8-H1/Hu3F8-L5 (antibody, human IgG1, V domains shown)
VH: B3 VH
VL: B1 VL with L15P, Q17E, F41Y, Q42L, R44K, R50Q, R51L, F94Y
notes: Human IgG1 FES (L234F, L235E, P331S) and human Ig kappa constant domains; also called Hu3F8 VH1/VL5
B5: Hu3F8-H2/Hu3F8-L3 (antibody, human IgG1, V domains shown)
VH: B3 VH with Q1E, R72V
VL: B1 VL with F41Y, R51L, F94Y
notes: Human IgG1 FES (L234F, L235E, P331S) and human Ig kappa constant domains; also called Hu3F8 VH2/VL3
B6: Hu3F8-H2/Hu3F8-L5 (antibody, human IgG1, V domains shown)
VH: B3 VH with Q1E, R72V
VL: B1 VL with L15P, Q17E, F41Y, Q42L, R44K, R50Q, R51L, F94Y
notes: Human IgG1 FES (L234F, L235E, P331S) and human Ig kappa constant domains; also called Hu3F8 VH2/VL5
B7: Hu3F8-H3/Hu3F8-L3 (antibody, human IgG1, V domains shown)
VH: B3 VH with Q1E, M48I, V68A, M70L, R72V
VL: B1 VL with F41Y, R51L, F94Y
notes: Human IgG1 FES (L234F, L235E, P331S) and human Ig kappa constant domains; also called Hu3F8 VH3/VL3
B8: Hu3F8-H3/Hu3F8-L4 (antibody, human IgG1, V domains shown)
VH: B3 VH with Q1E, M48I, V68A, M70L, R72V
VL: B1 VL with V2I, L15P, Q17E, F41Y, Q42L, R44K, R50Q, R51L, F94Y
notes: as for B3
B9: Hu3F8-H4/Hu3F8-L3 (antibody, human IgG1, V domains shown)
VH: B3 VH with Q1E, M48I, V68A, M70L, R72V, T74K
VL: B1 VL with F41Y, R51L, F94Y
notes: Human IgG1 FES (L234F, L235E, P331S) and human Ig kappa constant domains; also called Hu3F8 VH4/VL3
B10: Hu3F8-H4/Hu3F8-L4 (antibody, human IgG1, V domains shown)
VH: B3 VH with Q1E, M48I, V68A, M70L, R72V, T74K
VL: B1 VL with V2I, L15P, Q17E, F41Y, Q42L, R44K, R50Q, R51L, F94Y
notes: Human IgG1 FES (L234F, L235E, P331S) and human Ig kappa constant domains; also called Hu3F8 VH4/VL4
B11: Hu3F8-H4/Hu3F8-L5 (antibody, human IgG1, V domains shown)
VH: B3 VH with Q1E, M48I, V68A, M70L, R72V, T74K
VL: B1 VL with L15P, Q17E, F41Y, Q42L, R44K, R50Q, R51L, F94Y
notes: Human IgG1 FES (L234F, L235E, P331S) and human Ig kappa constant domains; also called Hu3F8 VH4/VL5
B12: Hu3F8-H5/Hu3F8-L3 (antibody, human IgG1, V domains shown)
VH: B3 VH with Q1E, M48I, H62A, V68A, M70L, R72V, T74K
VL: B1 VL with F41Y, R51L, F94Y
notes: as for B3
B13: Hu3F8-H5/Hu3F8-L4 (antibody, human IgG1, V domains shown)
VH: B3 VH with Q1E, M48I, H62A, V68A, M70L, R72V, T74K
VL: B1 VL with V2I, L15P, Q17E, F41Y, Q42L, R44K, R50Q, R51L, F94Y
notes: as for B3
B14: Hu3F8-H5/Hu3F8-L5 (antibody, human IgG1, V domains shown)
VH: B3 VH with Q1E, M48I, H62A, V68A, M70L, R72V, T74K
VL: B1 VL with L15P, Q17E, F41Y, Q42L, R44K, R50Q, R51L, F94Y
notes: as for B3
B15: Hu1B5-H1/Hu1B5-L2 (antibody, human IgG1, V domains shown)
VH: B3 VH with Y32F, S54Y, H59Q, G66D, L97G
VL: B1 VL with F41Y
B16: Hu1B5-H4/Hu1B5-L1 (antibody, human IgG1, V domains shown)
VH: B1 VH with T74K
VL: B1 VL
B17: Hu1B5-H5/Hu1B5-L1 (antibody, human IgG1, V domains shown)
VH: B1 VH with N61A, T74K
VL: B1 VL
B18: Hu1B5-H6/Hu1B5-L1 (antibody, human IgG1, V domains shown)
VH: EVQLVQSGAEVKKPGESLRISCKTSGFTFTRFWMNWVRQMPGKGLEWIGRIDPYDSETQYNHKFWDHATLSVDKSSSTVYLQWSSLKASDTAMYYCGRSLYGKGDYWGQGTTVTVSS
VL: B1 VL
B19: Hu3F6-H2/Hu3F6-L2 (antibody, human IgG1, V domains shown)
VH: B3 VH with Q1E, A24T, T28A, R31S, T58A, N61H, R72V, Q109H
VL: B1 VL with I29L, S32R, F41Y, F94Y
B20: Hu3F6-H3/Hu3F6-L2 (antibody, human IgG1, V domains shown)
VH: B1 VH with T28A, R31S, F32Y, Y54S, T58A, Q59H, N61H, D66G, G97L, Q109H
VL: B1 VL with I29L, S32R, F41Y, F94Y
B21: Hu1B5-H2/Hu1B5-L1 (antibody, human IgG1, V domains shown)
VH: B1 VH with I48M, A68V, L70M, S76T
VL: B1 VL
B22: Hu3F6-H5/Hu3F6-L2 (antibody, human IgG1, V domains shown)
VH: EVQLVQSGAEVKKPGASVKVSCKTSGFAFTSYWMNWVRQAPGQGLEWIGRIDPSDSEAHYAHKFWGRATLTVDKSSSTVYMELSSLRSEDTAVYYCLRSLYGKGDYWGHGTTVTVSS
VL: B1 VL with I29L, S32R, F41Y, F94Y
B23: Hu3F8-H3/Hu3F8-L1 (antibody, human IgG1, V domains shown)
VH: B3 VH with Q1E, M48I, V68A, M70L, R72V
VL: B1 VL with F94Y
B24: Hu3F8-H3/Hu3F8-L2 (antibody, human IgG1, V domains shown)
VH: B3 VH with Q1E, M48I, V68A, M70L, R72V
VL: B1 VL with F41Y, F94Y
B25: Hu3F8-H6/Hu3F8-L4 (antibody, human IgG1, V domains shown)
VH: B18 VH with T24A, F32Y, Y54S, Q59H, D66G, G97L
VL: B1 VL with V2I, L15P, Q17E, F41Y, Q42L, R44K, R50Q, R51L, F94Y
notes: as for B3

Legend:
[1] = target: T1, human adenosine A2A receptor (A2aR) (human, UniProt P29274 1-412); test: flow cytometry, HEK293-hA2aR cells, supernatant 1 ug/ml
[2] = target: T1, human adenosine A2A receptor (A2aR); test: flow cytometry titration, HEK293-hA2aR cells, purified antibody
[3] = target: T1, human adenosine A2A receptor (A2aR); test: cell-based or functional assay
[4] = target: T1, human adenosine A2A receptor (A2aR); test: flow cytometry, HEK293-hA2aR cells, supernatant 1 ug/ml

T1 sequence (P29274 whole entry): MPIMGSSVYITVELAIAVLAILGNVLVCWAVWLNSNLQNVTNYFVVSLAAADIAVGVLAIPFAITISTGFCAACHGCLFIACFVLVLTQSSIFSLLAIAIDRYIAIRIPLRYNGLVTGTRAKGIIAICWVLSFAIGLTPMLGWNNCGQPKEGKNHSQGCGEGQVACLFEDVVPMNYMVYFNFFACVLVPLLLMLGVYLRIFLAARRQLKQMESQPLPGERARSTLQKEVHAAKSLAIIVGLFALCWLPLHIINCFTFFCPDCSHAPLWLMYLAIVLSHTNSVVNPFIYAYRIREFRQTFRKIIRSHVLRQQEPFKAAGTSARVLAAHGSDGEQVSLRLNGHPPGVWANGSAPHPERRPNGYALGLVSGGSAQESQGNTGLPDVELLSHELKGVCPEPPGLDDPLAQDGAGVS

| Binder | MFI [1] [MFI] | EC50 [2] [nM] | IC50 of blocking activity, cAMP-Glo, 300 nM NECA, HEK293-hA2aR cells, supernatant [3] [nM] | MFI [4] [MFI] |
| --- | --- | --- | --- | --- |
| B1 | 152 | – | – | – |
| B2 | – | 0.83 | 1.5 | 1850 |
| B3 | – | – | 1.5 | 1810 |
| B4 | – | 0.85 | 1.4 | 1790 |
| B5 | – | 0.66 | 1.1 | 1800 |
| B6 | – | 0.9 | 1.8 | 1770 |
| B7 | – | 0.69 | 1.1 | 1860 |
| B8 | – | – | 1.7 | 1840 |
| B9 | – | 0.6 | 0.7 | 1910 |
| B10 | – | 0.79 | 1 | 1880 |
| B11 | – | 0.75 | 1.5 | 1890 |
| B12 | – | – | 1.5 | 1840 |
| B13 | – | – | 2.2 | 1840 |
| B14 | – | – | 1.6 | 1900 |
| B15 | 62 | – | – | – |
| B16 | 182 | – | – | – |
| B17 | 82 | – | – | – |
| B18 | 178 | – | – | – |
| B19 | 146 | – | – | – |
| B20 | 200 | – | – | – |
| B21 | 165 | – | – | – |
| B22 | 191 | – | – | – |
| B23 | 64 | – | – | – |
| B24 | 93 | – | – | – |
| B25 | – | – | 2.3 | 1880 |
